Results on 16 proteins are retold here after paper PMC3094553 (Nature methods, 2009).

Where “and” joins values, the source holds several entries; their conditions need not be identical. Identical values can stand only once. Bounds are passed on as bounds.

The labels stand for the following.
B1: PF0014/0015 complex (complex)
chain 1: MEEKKPVNLVLPEVENAIFIEGYPGVGLVGHIAANFLAKELDMDLIGYVDSLFIPPMSLILEGRPTPPLRFYGKNNIIIAIADIFLPPTLVNEIAKEIVNYLKKVNAEKVISLAGMGIGFFKDTFEVWGIGGSEEENKELESLGVKILKYGSITGMSGKLLWEASRAGLKSYVLLGETFGDRPDPRAAANVVEVLNKMLGLNVSVEPLLKEAEMIEEQLRRMHEQMEEARRKMERQYETMYL
chain 2: MVVEIPLLSGIARRTLDALMRNPIRTVEIRNARNYMTLEKVKEGDLVFLTYESLEDVMRGTEGIIAMVTRMEKSHQRVPWEESDEREISICRVQLKLVGLGRVVEVQEKNGVVFVKVREMLHHEISMG
B2: PF0259 (conserved hypothetical protein) (natural protein)
chain: MAVIIEFSLIPLGEVSVSKYIAEAIKLLEEKGVKYQLTPMGTIIEVGSVEEGLKIVGEAHELMFKLGVKRVVTHIKIDDRRDKERKMEDKVKSVIEKVKK
B3: PF1033 (thioredoxin-like fold) (natural protein)
chain: MIVIGEKFPEVEVKTTHGVIKLPDHFTKQGKWFMLFSHPADFTPVCTTEFYGLQIRLEKFRELGVEPIGLSVDQVFSHLKWMEWIKEKLGVEIEFPVIADDRGDLAEKLGMIPSGSTITARAVFIVDDKGIIRAIVYYPAEVGRDWDEILRLVKALKISTEKGVALPHKWPNNELIGDKVIVPPASSVEQIKEREEAKAKGEIECYDWWFCYKKLE
B4: superoxide reductase (PF1281, SOR) (enzyme)
chain: MISETIRSGDWKGEKHVPVIEYEREGELVKVKVQVGKEIPHPNTTEHHIRYIELYFLPEGENFVYQVGRVEFTAHGESVNGPNTSDVYTEPIAYFVLKTKKKGKLYALSYCNIHGLWENEVTLE
B5: PF1291 (phosphoesterase) (natural protein)
chain: MVYVAVLANIAGNLPALTAALSRIEEMREEGYEIEKYYILGNIVGLFPYPKEVIEVIKDLTKKENVKIIRGKYDQIIAMSDPHATDPGYIDKLELPGHVKKALKFTWEKLGHEGREYLRDLPIYLVDKIGGNEVFGVYGSPINPFDGEVLAEQPTSYYEAIMRPVKDYEMLIVASPMYPVDAMTRYGRVVCPGSVGFPPGKEHKATFALVDVDTLKPKFIEVEYDKKIIEERIRAEGLPEEIIKILYHGGRP
B6: PF0939 (isopropylmalate dehydratase) (natural protein)
chain: MKARGRAWKYGDNIDTDVIIPARYLNTSDPKELAQHVLEDLDPEFRYKMKPGDIIVAGENFGCGSSREHAPLAIKAAGVSAVIAKSFARIFYRNAINIGLPILEAPEAVERIETGDEIEIDFSTGEIRNLTKGEVYHANPFPEFIMEIIKAGGLVEWAKRRLAK
B7: PF1911 (ferredoxin NADP reductase) (natural protein)
chain: MYKILEKKEIAMRNTWYKVYAPHVAKKVQPGQFVIVRAFPNGERIPLTPVMWDREEGWIVLIVFTRGKTTMRMAVELKEGDSLLNVAGPLGTPVPMEKFGKILAIGAYTGIVEVYPIAKAWQEIGNDVTTLHVTFEPMVILKEELEKAVTRHIVEPVPLNPNQDFLANMKNVSQRLKEKVRELLESEDWDLVFMVGPVGDQKQVFEVVKEYGVPMKVDLHPIMVDGTGMCGACRVTVGGEVKFACVDGPEFDAYQVDWDELIHRVGFYAKLEKLALEKYMEELKAKGVI
B8: PF0094 (glutaredoxin-like) (natural protein)
chain: MGLISDADKKVIKEEFFSKMVNPVKLIVFVRKDHCQYCDQLKQLVQELSELTDKLSYEIVDFDTPEGKELAKRYRIDRAPATTITQDGKDFGVRYFGLPAGHEFAAFLEDIVDVSREETNLMDETKQAIRNIDQDVRILVFVTPTCPYCPLAVRMAHKFAIENTKAGKGKILGDMVEAIEYPEWADQYNVMAVPKIVIQVNGEDRVEFEGAYPEKMFLEKLLSALS
B9: PF1372 (conserved hypothetical protein) (natural protein)
chain: MTEIRYYKIGEDRFKISEDEVARRELRVAKVSDDVIQIQEEVHGIIALVGATSSVNIKKEELKELVKLVREEFGWDI
B10: acetyl-CoA synthetase subunit (PF1787) (natural protein)
chain: MDRVAKAREIIEKAKAENRPLVEPEAKEILKLYGIPVPEFKVARNEEEAVKFSGEIGYPVVMKIVSPQIIHKSDAGGVKINIKNDEEAREAFRTIMQNARNYKPDADLWGVIIYRMLPLGREVIVGMIRDPQFGPAVMFGLGGIFVEILKDVSFRVAPITKEDALEMIREIKAYPILAGARGEKPVNIEALADIIVKVGELALELPEIKEIDINPIFAYEDSAIAVDARMIL
B11: ferredoxin (PF1909, Fd) (natural protein)
chain: AWKVSVDQDTCIGDAICASLCPDVFEMNDEGKAQPKVEVIEDEELYNCAKEAMEACPVSAITIEEA
B12: PF0715 (NADH oxidase) (natural protein)
chain: MEFFEVLKKRRSIRRFQDKPVPRELIEKLLEAAFLSPSSYNKRPCHFIVVDDREKLEALSKSKLGASGLKTAPVAIVVTADESKSDVWIEDASIAAEHIHLASYALGLASFWVQIRNRMHNETKTAEEYVRELLNIPENYRVLCIIGVGYPAEDKPPHGNEVFEWEKVSYNEFGKRFK
B13: PF0619 (conserved hypothetical protein) (natural protein)
chain: MLVPGRVYLFRIPEGKEIIEFLREFAEKENIKVGIISAIGTLRNPVIGYFMEEEKKYKEISLTGTYELLSLSGNISLKDGKPFVHAHVVLGDSEGRAFGGHLVRGEVFVAEVFVQELEGETLERKPTEHGLALW
B14: PF0380 (conserved hypothetical protein) (natural protein)
chain: MGVEKVPKYDIPVKKVEYVFIELDKMKPHEQLVQRELEDFIESVTGSGIFWKPMLLAKIPGTDEYLIVDGHHRWAGLQKLGAKRAPSVILDYFDEGVKVYTWYPAFKGDVNKVIERLKAEGLEVIEDEKAEEKAEKGEIAFALIGEKSFAIPGGLEEQKKVSKVLDEMDQAKEIELVYYGLKEDAKADMEKGEIDYVFIRKAPTKEEVMELVKRGEVFSPKTTRHVLPFIPDKIDVKLEDLF
B15: PF1950 (phosphoribosyl transferase) (natural protein)
chain: MKKFPAYLASWEDIENWAKAGAWKVLESGWMPDVIVGLARGGWIAARLYCDYLGVKDLVSIKVEHWGVTATPDGRARLKYGAQYDFEGKKVLIVDDITDTGESMSLAYEYMKSRNPAEIRTATLLNIKGSKFVPDYYAKDIDWVWVVFPWNFVEDMINLTNNLFEEKDKLTTDEIISLFKELHGIEVPREKLEEALRMAEKRKIFKFENGFWTKV
B16: PF0230 (ArsR transcription regulator) (natural protein)
chain: MTKRVKVITDPEVIKVMLEDTRRKILQLLRNREMTISQLSEILGKMPQTIYHHIEKLKEAGLVEVKRTEMKGNLVEKYYGRTADVFYINLYMGDEELRYLARSRLKTKLDIFKKLGYKFDEEELLNVMDRILEKEHEVKVEISKEIENVEDSLKEFSNEDIIHAIEWLAMARLAQDEEYIELVKKLGQILKR

One series deals with the molecule itself. Description: SAXS.
In the case of B1, the “stoichiometry N” value is more than 8.

The next series concerns the molecule itself. Description: SAXS. The source holds these as a separate data set.
On to B2, for which the “stoichiometry N” value turned out to be 8.

Regarding B3, the “stoichiometry N” value was determined as 10.

On to B4, for which the “stoichiometry N” value stood at 4.

As to B5, the “stoichiometry N” value was determined as 4.

Consider B6, for which the “stoichiometry N” value worked out at 2.

With B7, the “stoichiometry N” value was determined as 2.

B8: the “percent of the sample as 2-mer” value came to 92%; the “stoichiometry N” value was 4 and 2.

Consider B9, for which the “stoichiometry N” value stood at 4.

Turning to B10, the “stoichiometry N” value was found to be 3.

Consider B11, for which the “percent of the sample as 2-mer” value is 40% and the “stoichiometry N” value came to 2.

On to B12, for which the “stoichiometry N” value stood at 2.

For B13, the “stoichiometry N” value amounted to 3.

B14: the “percent of the sample as 2-mer” value amounted to 68% and the “stoichiometry N” value was 2.

Take B15: the “stoichiometry N” value amounted to 2.

Turning to B16, the “stoichiometry N” value was found to be 2.
